Measurements taken from patent US20220267443A1 (AGENUS, published 2022).

Assays:
[1] = molecular target: T1, human FcγRIIB expressed on CHO cells (human, UniProt P31994 43-310); test: flow cytometry on CHO cells expressing human FcγRIIB
T1 construct: whole, on cells; also called rCHO-huFcγRIIB+
T1 sequence (looked up): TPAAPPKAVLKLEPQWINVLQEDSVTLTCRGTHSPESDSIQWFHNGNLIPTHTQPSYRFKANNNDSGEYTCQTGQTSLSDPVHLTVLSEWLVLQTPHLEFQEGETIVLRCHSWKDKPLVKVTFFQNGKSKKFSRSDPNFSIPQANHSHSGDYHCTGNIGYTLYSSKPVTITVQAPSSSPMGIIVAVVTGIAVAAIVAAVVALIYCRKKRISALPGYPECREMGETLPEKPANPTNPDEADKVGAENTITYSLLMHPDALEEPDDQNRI
Protocol: (§1) The binding of anti-CTLA-4 antibodies to human FcγRIIA, FcγRIIB, and FcγRIIIA expressed on the surface of CHO cells was measured by flow cytometry. Briefly, CHO cells were transfected with cDNA encoding for human FcγRIIA^H131, FcγRIIB, or FcγRIIIA^V158, generating the following CHO cell lines: rCHO-huFcγRIIA⁺, rCHO-huFcγRIIB⁺, and rCHO-huFcγRIIIA⁺. Binding of a dose titration of antibodies ranging from 0.0056-1000 μg/ml was performed and the primary antibodies were detected with an anti-human F(ab′) secondary antibody conjugated with Phycoerythrin (PE) (Jackson Immune Research). The samples were tested by flow cytometry and the PE mean fluorescence intensity (MFI) values were analyzed and used to generate binding curves. The antibodies tested were AGEN1884w, AGEN2041w, a reference anti-CTLA-4 IgG₁ antibody, and an IgG₁ isotype control antibody. AGEN1884w produced in two different growth media was used in this study: the growth media CD FortiCHO™ from Life Technologies Inc./Thermo (AGEN1884w-FortiCHO) and the growth media PowerCHO™ 2 from Lonza (AGEN1884w-PowerCHO). The reference anti-CTLA-4 IgG₁ antibody contains a different IgG₁ allotype from the one in AGEN1884w. The IgG₁ isotype control antibody was only tested at 1000 μg/ml.

[2] = molecular target: T2, human FcγRIIIA^V158 expressed on cells (human, UniProt P08637 17-254); test: flow cytometry on CHO cells expressing human FcγRIIIA^V158
T2 construct: whole, on cells; also called rCHO-huFcγRIIIA+
T2 sequence (P08637 17-254 F176V limits assumed): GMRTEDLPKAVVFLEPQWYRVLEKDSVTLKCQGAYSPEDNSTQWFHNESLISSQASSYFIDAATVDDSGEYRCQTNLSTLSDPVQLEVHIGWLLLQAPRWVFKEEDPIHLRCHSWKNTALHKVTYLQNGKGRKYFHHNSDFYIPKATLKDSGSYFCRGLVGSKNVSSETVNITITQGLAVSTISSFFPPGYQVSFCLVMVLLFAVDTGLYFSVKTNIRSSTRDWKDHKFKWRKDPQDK
Protocol: as §1

[3] = molecular target: T3, recombinant cynomolgus CTLA-4-Fc (Sino Biological, #90213-C02H) (cynomolgus, UniProt P16410 36-161 (human entry)); test: suspension array (Luminex) selectivity assay as in Section 6.1.3
T3 construct: Bought protein; also called recombinant cynomolgus (rc) CTLA-4; not shown: Fc part of the bought fusion protein
T3 sequence (P16410 other isoform, or with tags, fused parts or gaps C02H C02H limits assumed): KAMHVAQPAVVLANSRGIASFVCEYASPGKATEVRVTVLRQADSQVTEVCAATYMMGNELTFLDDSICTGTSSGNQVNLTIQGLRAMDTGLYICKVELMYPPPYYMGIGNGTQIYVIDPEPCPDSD

[4] = molecular target: T4, rhCD28-Fc (R&D, #342-CD-200) (human, UniProt P10747 19-152); test: as above
T4 construct: Bought protein; also called recombinant human CD28; not shown: Fc part of the bought fusion protein
T4 sequence (P10747 19-152 limits assumed): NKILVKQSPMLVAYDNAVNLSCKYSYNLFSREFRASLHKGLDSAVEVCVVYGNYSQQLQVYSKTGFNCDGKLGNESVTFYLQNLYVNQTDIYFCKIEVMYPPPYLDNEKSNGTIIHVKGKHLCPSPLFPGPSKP

[5] = molecular target: T5, rhICOS-Fc (R&D, #169-CS-050) (human, UniProt Q9Y6W8 21-141); test: as above
T5 construct: Bought protein; also called recombinant human ICOS; not shown: Fc part of the bought fusion protein
T5 sequence: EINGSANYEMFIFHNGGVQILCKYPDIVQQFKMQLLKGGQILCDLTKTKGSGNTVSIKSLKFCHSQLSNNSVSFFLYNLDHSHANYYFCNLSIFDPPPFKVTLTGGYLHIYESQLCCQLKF

[6] = molecular target: T6, rhBTLA-Fc (Sino Biological, #11896-H02H) (human, UniProt Q7Z6A9 31-157); test: as above
T6 construct: Bought protein; also called recombinant human BTLA; not shown: Fc part of the bought fusion protein
T6 sequence: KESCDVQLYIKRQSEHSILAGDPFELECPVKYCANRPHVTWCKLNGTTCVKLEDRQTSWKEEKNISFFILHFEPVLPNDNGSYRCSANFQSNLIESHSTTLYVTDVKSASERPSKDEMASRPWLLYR

[7] = molecular target: T7, rhPD-1-Fc (R&D Systems, #1086-PD) (human, UniProt Q15116 25-167); test: as above
T7 construct: Bought protein; also called recombinant human PD-1; not shown: Fc part of the bought fusion protein
T7 sequence (Q15116 25-167 limits assumed): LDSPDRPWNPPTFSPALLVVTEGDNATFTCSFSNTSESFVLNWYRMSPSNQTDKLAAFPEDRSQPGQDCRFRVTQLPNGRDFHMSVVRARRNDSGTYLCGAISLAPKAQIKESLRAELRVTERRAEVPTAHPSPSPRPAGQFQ

binding result [1]: binds
binding result [2]: binds
binding result [3]: binds
binding result [4]: no binding
binding result [5]: no binding
binding result [6]: no binding
binding result [7]: no binding
B1: AGEN2041w (antibody, human IgG2, kappa)
heavy: EVQLVESGGGLVKPGGSLRLSCAASGFTFSSYSMNWVRQAPGKGLEWVSSISSSSSYIYYADSVKGRFTISRDNAKNSLYLQMNSLRAEDTAVYYCARVGLMGPFDIWGQGTMVTVSSASTKGPSVFPLAPCSRSTSESTAALGCLVKDYFPEPVTVSWNSGALTSGVHTFPAVLQSSGLYSLSSVVTVPSSNFGTQTYTCNVDHKPSNTKVDKTVERKCCVECPPCPAPPVAGPSVFLFPPKPKDTLMISRTPEVTCVVVDVSHEDPEVQFNWYVDGVEVHNAKTKPREEQFNSTFRVVSVLTVVHQDWLNGKEYKCKVSNKGLPAPIEKTISKTKGQPREPQVYTLPPSREEMTKNQVSLTCLVKGFYPSDIAVEWESNGQPENNYKTTPPMLDSDGSFFLYSKLTVDKSRWQQGNVFSCSVMHEALHNHYTQKSLSLSPG
light: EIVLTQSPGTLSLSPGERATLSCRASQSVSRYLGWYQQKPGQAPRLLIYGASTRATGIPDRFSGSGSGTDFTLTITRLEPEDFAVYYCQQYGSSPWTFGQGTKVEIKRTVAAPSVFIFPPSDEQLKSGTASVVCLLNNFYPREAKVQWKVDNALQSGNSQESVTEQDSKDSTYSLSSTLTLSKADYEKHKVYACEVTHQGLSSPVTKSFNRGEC
notes: Human IgG2 version of AGEN1884w
